Tests used:
[1] = biological target: SpRadA K101A point mutant (Streptococcus pneumoniae) (UniProt Q8DRP0); experiment: negative-stain electron microscopy
[2] = biological target: SpRadA helicase (Streptococcus pneumoniae RadA), full length (Streptococcus pneumoniae) (UniProt Q8DRP0); experiment: negative-stain electron microscopy
[3] = biological target: SpRecA (Streptococcus pneumoniae, UniProt P0A452 1-388); experiment: fluorescence anisotropy

Q: For “SpRadA K101A point mutant (from UniProt Q8DRP0 1-420) (enzyme)”, which stoichiometry N [1] is on record?
A: 6

Q: “SpRadA helicase (Streptococcus pneumoniae RadA), full length (from UniProt Q8DRP0 1-420) (enzyme)” was tested. Which stoichiometry N [2] did it give?
A: 6

B1: T65 (polydT 65-mer) (ssDNA)
DNA: TTTTTTTTTTTTTTTTTTTTTTTTTTTTTTTTTTTTTTTTTTTTTTTTTTTTTTTTTTTTTTTTT
Q: Does B1 bind [3]?
A: binds
